Test results published in US20100196282A1, “OPTICAL IMAGING AGENTS” (priority 2007, published 2010).
Where a SMILES comes first, the peptide text is derived from it. Bridges are numbered along the chain shown (N, C = ends). The star is where a group is joined. X1 = CC1=CC(C)(C)N(CCCS(=O)(=O)O)c2cc3c(cc21)/C(=C/C=C/C1=[N+](CCCS(=O)(=O)O)c2ccc(S(=O)(=O)[O-])cc2C1(C)CCCC(=O)*)C=C(C(C)(C)C)O3; X5 = CCN1c2cc3c(cc2C(C)=CC1(C)C)/C(=C/C=C/C1=[N+](CCCS(=O)(=O)O)c2ccc(S(=O)(=O)[O-])cc2C1(C)CCCC(=O)*)C=C(C(C)(C)C)O3; X4 = CCN(CC)c1ccc2c(c1)OC(C(C)(C)C)=C/C2=C\C=C\C1=[N+](CCCS(=O)(=O)O)c2ccc(S(=O)(=O)[O-])cc2C1(C)CCCC(=O)*; X6 = CCN(CC)c1ccc2c(c1)OC(C(C)(C)C)=C/C2=C\C=C\C1=[N+](CCCCCC(=O)*)c2ccc(S(=O)(=O)[O-])cc2C1(C)C

How the values were obtained:
human c-Met/Fc chimera = biological target: T1, human c-Met/Fc chimera (Homo sapiens, UniProt P08581); test: Fluorescence polarisation assay, affinity binding to cMet; conditions: 5 nM dye-labelled peptide, c-Met/Fc 0-250 nM, 10 min at 30° C., one-site binding
T1 construct: Fc (immunoglobulin Fc fusion partner); purchased R&D Systems
Procedure: Monochromatic light passes through a […] polarizing filter and excites fluorescent molecules in the sample. Only those molecules that oriented properly in the vertically polarized plane adsorb light, become excited, and subsequently emit light. The emitted light is measured in both horizontal and vertical planes. The anisotropy value (A), is the ratio between the light intensities following the equation
The fluorescence anisotropy measurements were performed in 384-well microplates in a volume of 10 μL in binding buffer (PBS, 0.01% Tween-20, pH 7.5) using a Tecan Safire fluorescence polarisation plate reader (Tecan, US) at Ex 635/Em 678 nm. The concentration of dye-labelled peptide was held constant (5 nM) and the concentration of the human c-Met/Fc chimera (R&D Systems) was varied from 0-250 nM. Binding mixtures were equilibrated in the microplate for 10 min at 30° C. The observed change in anisotropy was fitted to the equation: […]
where robs is the observed anisotropy, rfree is the anisotropy of the free peptide, rbound is the anisotropy of the bound peptide, Kd is the dissociation constant, cMet is the total c-Met concentration, and P is the total dye-labelled peptide concentration. The equation assumes that the synthetic peptide and the receptor form a reversible complex in solution with 1:1 stoichiometry. Data fitting was done via nonlinear regression using SigmaPlot software to obtain the Kd value (one-site binding).
Compounds 1 to 6 were tested for binding towards human c-Met (Fc chimera).

in vitro = conditions: mouse, plasma
Text: (§1) The change of the polarization value was used to assess the binding of the Compound to human serum albumin as a low change of polarisation value is associated to low binding being appropriate for in-vivo use.

human serum albumin [1] = biological target: T2, human serum albumin (Homo sapiens, UniProt P02768)
human serum albumin [2] = biological target: T2, human serum albumin; test: in vitro
Text: Fluorescence polarisation assay was used to examine the affinity binding of the imaging agent towards the cMet target as well as the binding properties related to plasma proteins. The principle of the fluorescence polarisation method can briefly be described as follows:
as §1

[3] = Limited acute dose toxicity study in male rats; type: in vivo, rat; conditions: i.v.
Procedure: A limited acute dose toxicity study was conducted to investigate the tolerance of Compound 6 at 100 times the preclinical imaging dose (50 nmol/kg body weight).
The compound was injected intravenously in male rats, and the animals were sacrificed at 1, 14, 21 and 28 days post injection (p.i.). At necropsy, the major organs were inspected for gross pathology, and the kidneys were taken into neutral buffered formalin for subsequent histomorphological evaluation. A weak blue colouration of the skin and a moderate blue colouration of the urine were observed immediately after injection, which disappeared within 1 day p.i. […] The other minor changes seen were incidental and common in young adult laboratory rats. Strong fluorescence staining of blood vessels in the kidney was observed on day 1 p.i.

T2 sequence (P02768 25-609): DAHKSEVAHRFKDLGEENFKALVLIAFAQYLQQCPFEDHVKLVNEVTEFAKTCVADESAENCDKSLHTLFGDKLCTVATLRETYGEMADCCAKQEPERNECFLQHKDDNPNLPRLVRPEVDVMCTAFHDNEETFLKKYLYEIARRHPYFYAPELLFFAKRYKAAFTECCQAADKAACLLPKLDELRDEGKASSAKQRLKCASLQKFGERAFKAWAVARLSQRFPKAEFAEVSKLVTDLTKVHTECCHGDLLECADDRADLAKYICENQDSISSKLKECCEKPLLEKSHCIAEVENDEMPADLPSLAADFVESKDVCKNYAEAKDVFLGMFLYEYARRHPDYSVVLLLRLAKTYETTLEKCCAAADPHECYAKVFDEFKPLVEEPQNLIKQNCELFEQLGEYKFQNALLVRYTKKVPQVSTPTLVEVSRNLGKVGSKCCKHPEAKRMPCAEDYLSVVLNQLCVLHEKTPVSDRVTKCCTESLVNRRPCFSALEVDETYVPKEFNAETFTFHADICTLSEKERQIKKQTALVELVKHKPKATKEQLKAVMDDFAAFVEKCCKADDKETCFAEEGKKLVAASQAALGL
T1 sequence (P08581 with tags, fused parts or gaps limits assumed): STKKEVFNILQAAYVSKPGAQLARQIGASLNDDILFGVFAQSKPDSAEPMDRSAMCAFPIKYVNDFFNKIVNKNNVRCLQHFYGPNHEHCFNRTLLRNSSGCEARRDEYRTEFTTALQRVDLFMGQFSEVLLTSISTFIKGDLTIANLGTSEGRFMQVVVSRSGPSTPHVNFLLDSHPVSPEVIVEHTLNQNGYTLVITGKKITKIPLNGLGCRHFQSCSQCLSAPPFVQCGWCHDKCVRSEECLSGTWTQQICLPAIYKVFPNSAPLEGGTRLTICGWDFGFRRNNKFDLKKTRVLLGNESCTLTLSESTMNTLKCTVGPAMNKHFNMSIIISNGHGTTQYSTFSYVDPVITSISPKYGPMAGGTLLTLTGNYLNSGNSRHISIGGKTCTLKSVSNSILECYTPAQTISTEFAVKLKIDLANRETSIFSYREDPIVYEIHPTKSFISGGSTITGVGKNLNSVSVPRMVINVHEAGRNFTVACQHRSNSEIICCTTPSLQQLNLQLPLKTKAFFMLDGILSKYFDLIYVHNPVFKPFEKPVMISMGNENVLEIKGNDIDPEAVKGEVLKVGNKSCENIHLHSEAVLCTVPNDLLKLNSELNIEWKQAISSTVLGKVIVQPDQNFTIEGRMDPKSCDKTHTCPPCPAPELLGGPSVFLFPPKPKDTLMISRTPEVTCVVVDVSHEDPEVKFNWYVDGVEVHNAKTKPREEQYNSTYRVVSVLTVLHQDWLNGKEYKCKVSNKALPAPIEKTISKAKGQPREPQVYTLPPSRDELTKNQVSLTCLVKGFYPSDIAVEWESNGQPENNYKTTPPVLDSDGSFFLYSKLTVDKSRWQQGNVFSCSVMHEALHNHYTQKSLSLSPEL
T1 sequence (P08581 25-307 limits assumed, change not shown): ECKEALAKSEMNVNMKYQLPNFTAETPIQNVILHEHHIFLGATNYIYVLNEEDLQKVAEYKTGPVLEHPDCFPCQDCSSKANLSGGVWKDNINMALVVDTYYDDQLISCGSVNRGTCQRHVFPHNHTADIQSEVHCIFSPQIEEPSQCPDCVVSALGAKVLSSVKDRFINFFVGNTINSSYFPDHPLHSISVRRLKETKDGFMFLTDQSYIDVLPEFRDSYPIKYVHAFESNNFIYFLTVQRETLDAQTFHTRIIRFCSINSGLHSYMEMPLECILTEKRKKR

| Structure (SMILES) | Kd (human c-Met/Fc chimera) [nM] | remaining at 2 h (in vitro) [%] | Binding human serum albumin (Biacore) (human serum albumin [1]) | fraction unbound (human serum albumin [2]) | Fluorescence staining of blood vessels in the kidney ([3]; 100 times dose, day 21 p.i. (strong on day 1, reduced by day 14)) | Light microscopy of the kidneys ([3]; 100 times dose, necropsy at 1, 14, 21 and 28 days p.i.) | Nephrotoxicity ([3]; 100 times dose, no degeneration, necrosis or inflammation) | Time to disappearance of blue colouration of skin and urine ([3]; 100 times dose, observed immediately after injection) [days] | Tolerance of a single intravenous administration ([3]; 100 times the preclinical imaging dose (50 nmol/kg body weight)) |
| --- | --- | --- | --- | --- | --- | --- | --- | --- | --- |
| CCN(CC)c1ccc2c(c1)OC(C(C)(C)C)=C/C2=C\C=C\C1=[N+](CCCCCC(=O)NCCCC[C@H](NC(=O)CNC(=O)CNC(=O)CNC(=O)[C@@H](NC(=O)CNC(=O)[C@H](CCC(=O)O)NC(=O)[C@@H](NC(=O)[C@H](CCC(=O)O)NC(=O)[C@H](Cc2ccc(O)cc2)NC(=O)[C@@H]2CSSC[C@H](NC(=O)[C@H](CO)NC(=O)CNC(=O)[C@H](C)NC(C)=O)C(=O)N[C@@H](Cc3ccc(O)cc3)C(=O)N[C@H]3CSSC[C@H](NC(=O)[C@H](CCC(=O)O)NC(=O)[C@H](Cc4ccccc4)NC(=O)[C@H](CCCNC(=N)N)NC(=O)[C@@H]4CCCN4C(=O)[C@@H]4CCCN4C(=O)CNC(=O)[C@H](CO)NC3=O)C(=O)N[C@@H](Cc3c[nH]c4ccccc34)C(=O)N2)[C@@H](C)O)[C@@H](C)O)C(N)=O)c2ccc(S(=O)(=O)[O-])cc2C1(C)C [Compound 1] (Ac-AGSCYCSGPPRFECWCYETEGTGGGK(X6)-NH2; disulfide 4-16, 6-14) | 2.2 | > 95 | Very high | 0.64 |  |  |  |  |  |
| CCN(CC)c1ccc2c(c1)OC(C(C)(C)C)=C/C2=C\C=C\C1=[N+](CCCS(=O)(=O)O)c2ccc(S(=O)(=O)[O-])cc2C1(C)CCCC(=O)NCCCC[C@H](NC(=O)CNC(=O)CNC(=O)CNC(=O)[C@@H](NC(=O)CNC(=O)[C@H](CCC(=O)O)NC(=O)[C@@H](NC(=O)[C@H](CCC(=O)O)NC(=O)[C@H](Cc1ccc(O)cc1)NC(=O)[C@@H]1CSSC[C@H](NC(=O)[C@H](CO)NC(=O)CNC(=O)[C@H](C)NC(C)=O)C(=O)N[C@@H](Cc2ccc(O)cc2)C(=O)N[C@H]2CSSC[C@H](NC(=O)[C@H](CCC(=O)O)NC(=O)[C@H](Cc3ccccc3)NC(=O)[C@H](CCCNC(=N)N)NC(=O)[C@@H]3CCCN3C(=O)[C@@H]3CCCN3C(=O)CNC(=O)[C@H](CO)NC2=O)C(=O)N[C@@H](Cc2c[nH]c3ccccc23)C(=O)N1)[C@@H](C)O)[C@@H](C)O)C(N)=O (stereo partly drawn) [Compound 2] (Ac-AGSCYCSGPPRFECWCYETEGTGGGK(X4)-NH2; disulfide 4-16, 6-14) | 0.5 | > 95 | Very low | 0.67 |  |  |  |  |  |
| CCN1c2cc3c(cc2C(C)=CC1(C)C)/C(=C/C=C/C1=[N+](CCCS(=O)(=O)O)c2ccc(S(=O)(=O)[O-])cc2C1(C)CCCC(=O)NCCCC[C@H](NC(=O)CNC(=O)CNC(=O)CNC(=O)[C@@H](NC(=O)CNC(=O)[C@H](CCC(=O)O)NC(=O)[C@@H](NC(=O)[C@H](CCC(=O)O)NC(=O)[C@H](Cc1ccc(O)cc1)NC(=O)[C@@H]1CSSC[C@H](NC(=O)[C@H](CO)NC(=O)CNC(=O)[C@H](C)NC(C)=O)C(=O)N[C@@H](Cc2ccc(O)cc2)C(=O)N[C@H]2CSSC[C@H](NC(=O)[C@H](CCC(=O)O)NC(=O)[C@H](Cc4ccccc4)NC(=O)[C@H](CCCNC(=N)N)NC(=O)[C@@H]4CCCN4C(=O)[C@@H]4CCCN4C(=O)CNC(=O)[C@H](CO)NC2=O)C(=O)N[C@@H](Cc2c[nH]c4ccccc24)C(=O)N1)[C@@H](C)O)[C@@H](C)O)C(N)=O)C=C(C(C)(C)C)O3 (stereo partly drawn) [Compound 5] (Ac-AGSCYCSGPPRFECWCYETEGTGGGK(X5)-NH2; disulfide 4-16, 6-14) | 2.2 | > 95 | Medium | 0.51 |  |  |  |  |  |
| CC(=O)N[C@@H](C)C(=O)NCC(=O)N[C@@H](CO)C(=O)N[C@H]1CSSC[C@@H](C(=O)N[C@@H](Cc2ccc(O)cc2)C(=O)N[C@@H](CCC(=O)O)C(=O)N[C@H](C(=O)N[C@@H](CCC(=O)O)C(=O)NCC(=O)N[C@H](C(=O)NCC(=O)NCC(=O)NCC(=O)N[C@@H](CCCCNC(=O)CCCC2(C)C(/C=C/C=C3\C=C(C(C)(C)C)Oc4cc5c(cc43)C(C)=CC(C)(C)N5CCCS(=O)(=O)O)=[N+](CCCS(=O)(=O)O)c3ccc(S(=O)(=O)[O-])cc32)C(N)=O)[C@@H](C)O)[C@@H](C)O)NC(=O)[C@H](Cc2c[nH]c3ccccc23)NC(=O)[C@@H]2CSSC[C@H](NC(=O)[C@H](Cc3ccc(O)cc3)NC1=O)C(=O)N[C@@H](CO)C(=O)NCC(=O)N1CCC[C@H]1C(=O)N1CCC[C@H]1C(=O)N[C@@H](CCCNC(=N)N)C(=O)N[C@@H](Cc1ccccc1)C(=O)N[C@@H](CCC(=O)O)C(=O)N2 (stereo partly drawn) [Compound 6] (Ac-AGSCYCSGPPRFECWCYETEGTGGGK(X1)-NH2; disulfide 4-16, 6-14) | 0.9 | > 95 | Very low | 0.54 | not discernible from control | no Compound 6-related findings in the kidneys | low | ≤ 1 | well tolerated and without any drug substance related adverse effects |
